Results: patent US20190071480A1 (Biogen, published 2019)
Each block holds one binder with its values, some of them ahead of it. Bridges are numbered along the chain shown (N, C = ends).

Assays:
[1] = target: T1, extracellular domain of activin receptor type IIB (ActRIIBecd), biotinylated (Homo sapiens (Human), UniProt Q13705 27-117, amino-biotinylated with amine-PEG3-Biotin); assay: BIAcore SPR as Example 5 (method not restated); SD ±1.62 nM
T1 construct: immobilised on a streptavidin-coated sensor chip; also called biotinylated ActRIIBecd; extracellular domain of ActRIIB
T1 sequence: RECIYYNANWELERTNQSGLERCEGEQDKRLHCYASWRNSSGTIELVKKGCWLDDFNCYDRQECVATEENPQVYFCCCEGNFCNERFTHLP

[2] = target: T1, extracellular domain of activin …; assay: Mean KD column of Table 5; method not restated (BIAcore as Example 5); species also listed in Table 4
Summary of the method: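 Using a streptavidin-captured, biotinylated ectodomain, binding of the domain polypeptides was monitored at 25° C, 10 μl/min. Association, dissociation and equilibrium values were evaluated from concentrations of 1.11, 3.33, 10, 30 and 90 nM.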

[3] = target: T1, extracellular domain of activin …; assay: BIAcore SPR as Example 5 (method not restated); SD ±2.62 nM
Procedure: (§1) Biosensor experiments. In one embodiment, experiments were performed on a BIAcore™ T100/T200 instrument (Pharmacia Biosensor AB) in the multichannel mode (serial flow path involving flow cells 1+2+3+4). Flow rate was 10 μl/min; temperature was 25° C.; and data were recorded at 2.5 points/s. All four segments of a sensor chip CMS were coated with streptavidin (Sigma) to a density of 2000 pg/mm² (2000 resonance units) by the aminocoupling procedure. ActRIIBecd (10 mg) and amine-PEG3-Biotin (10 mg, Pierce, Rockford, Ill.) were dissolved in 200 μl H₂O and 10 mg NaCNBH₃ was added to prepare biotinylated ActRIIBecd. The reaction mixture was heated at 70° C. for 24 h, after that a further 10 mg NaCNBH₃ was added and the reaction was heated at 70° C. for another 24 h. After cooling to room temperature, the mixture was desalted with the spin column (3,000 molecular weight cut off (MWCO)). […] Sensograms were recorded during flow of the analyte (the ActRIIBecd-associated polypeptides (i.e., domains) as previously described) first through flow cell 1 (control) then through flow cell 2 (biotinylated ActRIIBecd). […] The sensograms obtained at 1.11, 3.33, 10, 30, and 90 nM analyte were evaluated for equilibrium binding, association rate, and dissociation rate by using the programs supplied with the instrument (BIA evaluation 2.1; Software Handbook. 1995; Pharmacia Biosensor AB).

[4] = target: T1, extracellular domain of activin …; assay: BIAcore SPR as Example 5 (method not restated); SD ±1.79 nM
Procedure: as §1

[5] = target: T1, extracellular domain of activin …; assay: BIAcore SPR as Example 5 (method not restated); SD ±2.88 nM
Procedure: as §1

[6] = target: T1, extracellular domain of activin …; assay: Mean KD column of Table 5; differs from Table 4 (22.31)
Procedure: as §1

[7] = target: T1, extracellular domain of activin …; assay: BIAcore SPR as Example 5 (method not restated); SD ±1.99 nM
Procedure: as §1

[8] = target: T1, extracellular domain of activin …; assay: BIAcore SPR as Example 5 (method not restated); SD ±1.56 nM
Procedure: as §1

[9] = target: T1, extracellular domain of activin …; assay: BIAcore SPR as Example 5 (method not restated); SD ±3.09 nM
Procedure: as §1

[10] = target: T1, extracellular domain of activin …; assay: BIAcore SPR as Example 5 (method not restated); SD ±3.30 nM
Procedure: as §1

[11] = target: T1, extracellular domain of activin …; assay: BIAcore SPR as Example 5 (method not restated); SD ±1.27 nM
Procedure: as §1

[12] = target: T1, extracellular domain of activin …; assay: BIAcore SPR as Example 5 (method not restated); SD ±2.31 nM
Procedure: as §1

[13] = target: T1, extracellular domain of activin …; assay: BIAcore SPR as Example 5 (method not restated); SD ±2.09 nM
Procedure: as §1

[14] = target: T1, extracellular domain of activin …; assay: BIAcore SPR, biotinylated ActRIIBecd on chip; SD ±23.17 nM
Procedure: as §1

[15] = target: T1, extracellular domain of activin …; assay: BIAcore SPR, biotinylated ActRIIBecd on chip; SD ±24.42 nM
Procedure: as §1

[16] = target: T1, extracellular domain of activin …; assay: BIAcore SPR as Example 5 (method not restated); SD ±3.22 nM
Procedure: as §1

Kd [1]: 16.2 nM
Kd [2]: 16.2 nM
B1: SEQ ID NO: 218, cysteine pairs C15-C15^b, C29-C62^a, C30-C64^a (designed binder)
chain: AQAKHKQRKRLKSSCKRHPLYNSKIPKACCVPTELSAISMLYLDENEKVVLKNYQDMVVEGCGCR
modifications: disulfide 29-62, 30-64; also: homodimer via intermolecular C15-C15 disulfide
notes: homodimer by intermolecular disulfide

Kd [3]: 40.9 nM
Kd [2]: 40.9 nM
B2: SEQ ID NO: 218, cysteine pairs C15-C30^a (designed binder)
chain: AQAKHKQRKRLKSSCKRHPLYNSKIPKACCVPTELSAISMLYLDENEKVVLKNYQDMVVEGCGCR
modifications: disulfide 15-30

Kd [4]: 18.4 nM
Kd [2]: 18.4 nM
B3: SEQ ID NO: 218, cysteine pairs C15-C15^b, C29-C64^a, C30-C62^a (designed binder)
chain: AQAKHKQRKRLKSSCKRHPLYNSKIPKACCVPTELSAISMLYLDENEKVVLKNYQDMVVEGCGCR
modifications: disulfide 29-64, 30-62; also: homodimer via intermolecular C15-C15 disulfide
notes: as for B1

Kd [5]: 48.9 nM
Kd [2]: 48.9 nM
B4: SEQ ID NO: 224, cysteine pairs C15-C44^a (designed binder)
chain: GQAKRKGYKRLKSSCKRHPLYVDFKDVGWNDHAVAPPGYHAFYCHGECPFPLADHLNSDNHAIVQTKVNSV
modifications: disulfides C15-C44 (intra)

Kd [6]: 21.5 nM
Kd [7]: 22.3 nM
B5: SEQ ID NO: 224, cysteine pairs C44-C48^a (designed binder)
chain: GQAKRKGYKRLKSSCKRHPLYVDFKDVGWNDHAVAPPGYHAFYCHGECPFPLADHLNSDNHAIVQTKVNSV
modifications: disulfides C44-C48 (intra)

Kd [8]: 19.3 nM
Kd [2]: 19.3 nM
B6: SEQ ID NO: 212, cysteine pairs C59-C59^b, C8-C43^a, C9-C41^a (designed binder)
chain: NSKIPKACCVPTELSAISMLYLDENEKVVLKNYQDMVVEGCGCRAQAKHKQRKRLKSSCKRHPLY
modifications: disulfide 9-41, 8-43; also: homodimer via intermolecular C59-C59 disulfide
notes: as for B1

Kd [9]: 44.3 nM
Kd [2]: 44.3 nM
B7: SEQ ID NO: 212, cysteine pairs C41-C59^a (designed binder)
chain: NSKIPKACCVPTELSAISMLYLDENEKVVLKNYQDMVVEGCGCRAQAKHKQRKRLKSSCKRHPLY
modifications: disulfide 41-59

Kd [10]: 49.5 nM
Kd [2]: 49.5 nM
B8: SEQ ID NO: 236, cysteine pairs C41-C59^a (designed binder)
chain: NSKDPKACCVPTELSAPSPLYLDENEKPVLKNYQDMVVHGCGCRGQAKRKGYKRLKSSCKRHPLY
modifications: disulfide 41-59

Kd [11]: 17.1 nM
Kd [2]: 17.1 nM
B9: SEQ ID NO: 236, cysteine pairs C59-C59^b, C8-C43^a, C9-C41^a (designed binder)
chain: NSKDPKACCVPTELSAPSPLYLDENEKPVLKNYQDMVVHGCGCRGQAKRKGYKRLKSSCKRHPLY
modifications: disulfide 9-41, 8-43; also: homodimer via intermolecular C59-C59 disulfide
notes: as for B1

Kd [12]: 17.9 nM
Kd [2]: 17.9 nM
B10: SEQ ID NO: 230, cysteine pairs C23-C27^a (designed binder)
chain: VDFKDVGWNDHAVAPPGYHAFYCHGECPFPLADHLNSDNHAIVQTKVNSVGQAKRKGYKRLKSSCKRHPLY
modifications: disulfides C23-C27 (intra)

Kd [13]: 17.8 nM
Kd [2]: 17.8 nM
B11: SEQ ID NO: 242, cysteine pairs C15-C15^b, C29-C62^a, C30-C64^a (designed binder)
chain: GQAKRKGYKRLKSSCKRHPLYNSKDPKACCVPTELSAPSPLYLDENEKPVLKNYQDMVVHGCGCR
modifications: disulfide 29-62, 30-64; also: homodimer via intermolecular C15-C15 disulfide
notes: as for B1

Kd [14]: 63.7 nM
B12: Clone No. 11 domain (ActRIIBecd-associated polypeptide) (peptide)
chain: AQAKHKGRKRLKSSCKRHPLY

Kd [15]: 58.4 nM
B13: Clone No. 12 domain (ActRIIBecd-associated polypeptide) (peptide)
chain: AQAKHKQYKRLKSSCKRHPLY

Kd [16]: 47.8 nM
Kd [2]: 47.8 nM
B14: SEQ ID NO: 248, cysteine pairs C41-C43^a (designed binder)
chain: NSKDPKACCVPTELSAPSPLYLDENEKPVLKNYQDMVVHGCGCRVDFKDVGWNDHAVAPPGYHAFYCHGECPFPLADHLNSDNHAIVQTKVNSV
modifications: disulfides C41-C43 (intra)
